Target: rat PK1 receptor, endogenous in rat ileum (rat, UniProt Q8R416)
Assay: cell-based or functional assay

EC50 of the early contractile response of isolated rat ileum: 87.8 nM
EC50 of the late contractile response of isolated rat ileum: 72.4 nM
B1: PK1 ligand preparation (recombinant human Prokineticin 1 after enterokinase removal of the N-terminal FLAG tag) (ligand)
chain: AVITGACERDVQCGAGTCCAISLWLRGLRMCTPLGREGEECHPGSHKVPFFRKRKHHTCPCLPNLLCSRFPDGRYRCSMDLKNINF
